Measured values published in patent US20080102072A1.

Legend:
[1] = target: human IFNAR1, membrane receptor on cells (U266 human myeloma cells; Hela and A549 cells in the functional assays) (human) (UniProt P17181); test: flow cytometry on U266 cells, fluoresceinated control IgG, no soluble hIFNAR1
[2] = target: human IFNAR1, membrane receptor on cells (U266 human myeloma cells; Hela and A549 cells in the functional assays) (human) (UniProt P17181); test: flow cytometry on U266 cells, F-mAb preincubated with competitor: 10 µg soluble hIFNAR1-IgG Mutant #7 (244-249)
[3] = target: IFNAR1-IgG multiple alanine mutant 3, residues 76-80 (RAEKE to AAAAA) (human); test: capture ELISA, mutant IFNAR1-IgG captured by goat anti-hIgG-Fc, mAb 10 µg/ml; OD as % of wild type IFNAR1-IgG
[4] = target: IFNAR1-IgG multiple alanine mutant 6, residues 157-162 (RHKIYK to AAAIYA) (human); test: as above
[5] = target: IFNAR1-IgG multiple alanine mutant 1, residues 19-25 (RWNRSDE to AWNASAA) (human); test: as above
Sequence of IFNAR1-IgG multiple alanine mutant 1, residues 19-25 (RWNRSDE to AWNASAA) (human) (chain, as listed by the source mutant limits assumed): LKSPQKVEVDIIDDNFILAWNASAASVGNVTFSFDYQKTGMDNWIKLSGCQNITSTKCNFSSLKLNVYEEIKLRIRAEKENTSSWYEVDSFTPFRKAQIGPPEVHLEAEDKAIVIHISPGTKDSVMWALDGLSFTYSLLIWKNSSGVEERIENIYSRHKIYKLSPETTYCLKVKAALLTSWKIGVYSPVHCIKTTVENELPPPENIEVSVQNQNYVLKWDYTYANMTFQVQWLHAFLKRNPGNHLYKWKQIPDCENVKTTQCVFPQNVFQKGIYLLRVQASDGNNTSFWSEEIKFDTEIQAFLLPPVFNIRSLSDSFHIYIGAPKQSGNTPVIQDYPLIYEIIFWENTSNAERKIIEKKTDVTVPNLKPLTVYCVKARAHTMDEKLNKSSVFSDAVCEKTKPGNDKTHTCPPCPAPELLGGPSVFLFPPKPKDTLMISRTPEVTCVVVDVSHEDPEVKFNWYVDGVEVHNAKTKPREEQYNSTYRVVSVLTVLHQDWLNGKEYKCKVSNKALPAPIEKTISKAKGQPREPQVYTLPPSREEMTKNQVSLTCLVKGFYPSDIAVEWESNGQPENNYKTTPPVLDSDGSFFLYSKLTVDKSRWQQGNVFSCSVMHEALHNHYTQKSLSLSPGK

[6] = target: IFNAR1-IgG multiple alanine mutant 10, residues 383-388 (DEKLNK to AAALNA) (human); test: as above
[7] = target: IFNAR1-IgG multiple alanine mutant 5, residues 148-152 (EERIE to AAAIA) (human); test: as above
[8] = target: IFNAR1-IgG multiple alanine mutant 7, residues 244-249 (HLYKWK to ALYAWA) (human); test: as above
Sequence of IFNAR1-IgG multiple alanine mutant 7, residues 244-249 (HLYKWK to ALYAWA) (human) (chain, as listed by the source mutant limits assumed): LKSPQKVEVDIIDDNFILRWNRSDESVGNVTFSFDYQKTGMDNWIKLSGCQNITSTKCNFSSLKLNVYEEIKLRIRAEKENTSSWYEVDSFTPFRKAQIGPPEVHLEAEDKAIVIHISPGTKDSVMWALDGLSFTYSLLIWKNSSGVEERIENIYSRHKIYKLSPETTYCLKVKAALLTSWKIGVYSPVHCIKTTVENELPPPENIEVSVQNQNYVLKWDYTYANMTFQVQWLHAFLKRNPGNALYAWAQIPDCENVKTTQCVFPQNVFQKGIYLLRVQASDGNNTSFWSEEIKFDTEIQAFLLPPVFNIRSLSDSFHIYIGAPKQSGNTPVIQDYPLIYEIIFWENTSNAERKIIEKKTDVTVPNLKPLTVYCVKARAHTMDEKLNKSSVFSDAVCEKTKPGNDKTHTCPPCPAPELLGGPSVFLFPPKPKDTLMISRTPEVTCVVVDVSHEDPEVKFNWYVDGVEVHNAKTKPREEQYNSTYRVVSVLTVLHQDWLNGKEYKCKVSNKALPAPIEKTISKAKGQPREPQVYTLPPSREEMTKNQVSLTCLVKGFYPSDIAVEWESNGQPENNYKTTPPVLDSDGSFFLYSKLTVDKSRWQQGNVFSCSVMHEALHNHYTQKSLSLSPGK

[9] = target: IFNAR1-IgG multiple alanine mutant 2, residues 69-74 (EEIKLR to AAIALA) (human); test: as above
[10] = target: IFNAR1-IgG multiple alanine mutant 4, residues 103-111 (… to …) (human); test: as above
[11] = target: IFNAR1-IgG multiple alanine mutant 9, residues 352-359 (ERKIIEKK to AAAIIAAA) (human); test: as above
Sequence of IFNAR1-IgG multiple alanine mutant 9, residues 352-359 (ERKIIEKK to AAAIIAAA) (human) (chain, as listed by the source mutant limits assumed): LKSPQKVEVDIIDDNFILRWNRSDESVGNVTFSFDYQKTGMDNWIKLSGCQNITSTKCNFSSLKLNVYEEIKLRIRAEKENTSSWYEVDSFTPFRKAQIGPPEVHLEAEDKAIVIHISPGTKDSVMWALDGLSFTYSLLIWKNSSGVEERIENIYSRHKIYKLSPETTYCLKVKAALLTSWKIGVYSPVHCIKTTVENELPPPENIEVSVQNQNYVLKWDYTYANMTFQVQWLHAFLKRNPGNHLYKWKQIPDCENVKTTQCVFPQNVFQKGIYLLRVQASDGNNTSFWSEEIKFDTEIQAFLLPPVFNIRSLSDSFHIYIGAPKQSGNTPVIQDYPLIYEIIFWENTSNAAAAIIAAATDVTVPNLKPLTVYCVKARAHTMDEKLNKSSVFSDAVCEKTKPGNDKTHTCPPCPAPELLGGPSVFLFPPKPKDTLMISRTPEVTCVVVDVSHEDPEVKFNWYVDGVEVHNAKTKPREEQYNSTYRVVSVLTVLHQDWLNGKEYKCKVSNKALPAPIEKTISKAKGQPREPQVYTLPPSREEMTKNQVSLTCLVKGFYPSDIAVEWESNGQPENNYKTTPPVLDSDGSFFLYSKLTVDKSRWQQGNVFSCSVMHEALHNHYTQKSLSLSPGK

[12] = target: IFNAR1-IgG multiple alanine mutant 8, residues 291-298 (EEIKFDTE to AAIAFATA) (human); test: as above
[13] = target: human IFNAR1, membrane receptor on cells (U266 human myeloma cells; Hela and A549 cells in the functional assays) (human) (UniProt P17181); test: flow cytometry on U266 cells, F-mAb preincubated with competitor: 10 µg soluble wild type hIFNAR1-IgG
[14] = target: hIFNAR1 ECD-IgG fusion protein (immunoadhesin, pRK5 hIFNAR1-IgG clone 53.65), wild type (human); test: competitive radioimmunoprecipitation with 125I-hIFNAR1-IgG and unlabeled hIFNAR1-IgG, Scatchard analysis
Sequence of hIFNAR1 ECD-IgG fusion protein (immunoadhesin, pRK5 hIFNAR1-IgG clone 53.65), wild type (human) (chain, as listed by the source limits assumed): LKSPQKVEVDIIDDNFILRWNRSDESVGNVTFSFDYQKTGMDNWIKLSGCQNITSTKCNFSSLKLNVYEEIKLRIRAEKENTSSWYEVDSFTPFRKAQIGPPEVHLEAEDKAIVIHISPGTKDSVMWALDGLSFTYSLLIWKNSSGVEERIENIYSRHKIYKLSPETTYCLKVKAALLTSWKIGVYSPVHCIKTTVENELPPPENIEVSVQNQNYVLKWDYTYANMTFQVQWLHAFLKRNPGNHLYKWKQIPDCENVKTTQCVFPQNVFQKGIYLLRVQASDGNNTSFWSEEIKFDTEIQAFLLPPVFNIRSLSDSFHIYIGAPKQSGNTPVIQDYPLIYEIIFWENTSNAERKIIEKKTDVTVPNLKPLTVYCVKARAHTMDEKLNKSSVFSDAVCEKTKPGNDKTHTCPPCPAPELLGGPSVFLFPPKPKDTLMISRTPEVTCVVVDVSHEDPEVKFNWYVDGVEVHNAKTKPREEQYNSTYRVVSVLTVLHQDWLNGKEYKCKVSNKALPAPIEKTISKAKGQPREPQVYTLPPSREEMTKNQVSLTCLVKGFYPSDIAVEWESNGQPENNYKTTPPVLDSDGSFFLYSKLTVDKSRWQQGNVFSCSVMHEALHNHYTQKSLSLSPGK

[15] = target: human IFNAR1, membrane receptor on cells (U266 human myeloma cells; Hela and A549 cells in the functional assays) (human) (UniProt P17181); test: cell-based or functional assay
[16] = target: human IFNAR1, membrane receptor on cells (U266 human myeloma cells; Hela and A549 cells in the functional assays) (human) (UniProt P17181); test: flow cytometry on U266 cells, fluoresceinated mAb 1 µg/100 µl, no soluble hIFNAR1
[17] = target: human IFNAR1, membrane receptor on cells (U266 human myeloma cells; Hela and A549 cells in the functional assays) (human) (UniProt P17181); test: flow cytometry on U266 cells, F-mAb preincubated with competitor: 10 µg soluble hIFNAR1-IgG Mutant #8 (291-298)
[18] = target: IFNAR1-IgG single alanine mutant K72A (human); test: capture ELISA, single alanine mutant IFNAR1-IgG captured by goat anti-hIgG-Fc; OD as % of wild type IFNAR1-IgG
[19] = target: IFNAR1-IgG single alanine mutant E69A (human); test: as above
Sequence of IFNAR1-IgG single alanine mutant E69A (human) (chain, as listed by the source E69A E69A limits assumed): as the sequence (chain, as listed by the source limits assumed) above, with E69A counted along it

[20] = target: IFNAR1-IgG single alanine mutant E291A (human); test: as above
[21] = target: IFNAR1-IgG single alanine mutant E292A (human); test: as above
[22] = target: IFNAR1-IgG single alanine mutant D296A (human); test: as above
Sequence of IFNAR1-IgG single alanine mutant D296A (human) (chain, as listed by the source D296A D296A limits assumed): as the sequence (chain, as listed by the source limits assumed) above, with D296A counted along it

[23] = target: IFNAR1-IgG single alanine mutant K247A (human); test: as above
Sequence of IFNAR1-IgG single alanine mutant K247A (human) (chain, as listed by the source K247A K247A limits assumed): as the sequence (chain, as listed by the source limits assumed) above, with K247A counted along it

[24] = target: IFNAR1-IgG single alanine mutant E70A (human); test: as above
[25] = target: IFNAR1-IgG single alanine mutant K249A (human); test: as above
[26] = target: IFNAR1-IgG single alanine mutant E298A (human); test: as above
[27] = target: IFNAR1-IgG single alanine mutant H244A (human); test: as above
[28] = target: IFNAR1-IgG single alanine mutant K294A (human); test: as above
[29] = target: IFNAR1-IgG single alanine mutant R74A (human); test: as above

Sequence of UniProt P17181 (P17181 28-557): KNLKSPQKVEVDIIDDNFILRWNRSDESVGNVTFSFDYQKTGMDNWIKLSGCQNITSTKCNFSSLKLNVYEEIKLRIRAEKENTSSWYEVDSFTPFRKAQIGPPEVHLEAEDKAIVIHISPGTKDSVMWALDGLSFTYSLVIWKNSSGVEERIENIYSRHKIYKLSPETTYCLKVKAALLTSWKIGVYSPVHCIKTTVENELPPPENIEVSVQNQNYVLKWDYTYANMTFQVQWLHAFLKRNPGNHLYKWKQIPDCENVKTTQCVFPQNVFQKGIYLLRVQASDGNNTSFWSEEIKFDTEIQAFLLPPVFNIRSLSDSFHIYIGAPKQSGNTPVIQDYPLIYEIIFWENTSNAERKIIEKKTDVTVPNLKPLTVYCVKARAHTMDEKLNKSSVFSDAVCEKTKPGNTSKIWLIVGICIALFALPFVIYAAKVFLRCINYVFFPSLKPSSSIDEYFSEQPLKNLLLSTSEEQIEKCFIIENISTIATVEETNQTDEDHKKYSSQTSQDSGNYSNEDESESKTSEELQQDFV

control IgG (antibody)
Mean Fluorescence Intensity [1]: 2.99

anti-hIFNAR1 monoclonal antibody 4A7 (hybridoma ATCC HB 12132)
Mean Fluorescence Intensity [2]: 2.95 | % Wild type binding of mAbs [3]: 92% | % Wild type binding of mAbs [4]: 100% | % Wild type binding of mAbs [5]: 95% | % Wild type binding of mAbs [6]: 103% | % Wild type binding of mAbs [7]: 90% | % Wild type binding of mAbs [8]: 106% | % Wild type binding of mAbs [9]: 0% | % Wild type binding of mAbs [10]: 80% | % Wild type binding of mAbs [11]: 101% | % Wild type binding of mAbs [12]: 96% | Mean Fluorescence Intensity [13]: 2.45 | Kd [14]: 0.052 nM | EC50 of mAb neutralizing the anti-viral cytopathic effect of 10 units/ml IFNα1 on A549 cells (EMC virus) [15]: 10 µg/mL | EC50 of mAb neutralizing the anti-viral cytopathic effect of 10 units/ml IFNα2/1 on A549 cells (EMC virus) [15]: 20 µg/mL | EC50 of mAb neutralizing the anti-viral cytopathic effect of 10 units/ml IFNα2 on A549 cells (EMC virus) [15]: 10 µg/mL | EC50 of mAb neutralizing the anti-viral cytopathic effect of 10 units/ml IFNα5 on A549 cells (EMC virus) [15]: 6 µg/mL | EC50 of mAb neutralizing the anti-viral cytopathic effect of 10 units/ml IFNα8 on A549 cells (EMC virus) [15]: 3 µg/mL | EC50 of mAb neutralizing the anti-viral cytopathic effect of 10 units/ml IFNβ on A549 cells (EMC virus) [15]: > 30 µg/mL | Mean Fluorescence Intensity [16]: 9.49 | Mean Fluorescence Intensity [17]: 3.16 | % Wild type binding of mAbs [18]: 91% | % Wild type binding of mAbs [19]: 69% | % Wild type binding of mAbs [20]: 58% | % Wild type binding of mAbs [21]: 58% | % Wild type binding of mAbs [22]: 53% | % Wild type binding of mAbs [23]: 86% | % Wild type binding of mAbs [24]: 85% | % Wild type binding of mAbs [25]: 73% | % Wild type binding of mAbs [26]: 60% | % Wild type binding of mAbs [27]: 96% | % Wild type binding of mAbs [28]: 69% | % Wild type binding of mAbs [29]: 30%
